Experimental data taken from patent US20030087827A1.
Non-standard residues stand in square brackets, D forms with d.

What was measured:
[1] = target: proprotein convertase PC2; assay: enzyme inhibition, pERTKR-MCA hydrolysis (fluorescence), competitive Ki
[2] = target: recombinant truncated mouse furin (mouse) (UniProt P23188); assay: as above
recombinant truncated mouse furin (mouse), sequence (P23188 108-714): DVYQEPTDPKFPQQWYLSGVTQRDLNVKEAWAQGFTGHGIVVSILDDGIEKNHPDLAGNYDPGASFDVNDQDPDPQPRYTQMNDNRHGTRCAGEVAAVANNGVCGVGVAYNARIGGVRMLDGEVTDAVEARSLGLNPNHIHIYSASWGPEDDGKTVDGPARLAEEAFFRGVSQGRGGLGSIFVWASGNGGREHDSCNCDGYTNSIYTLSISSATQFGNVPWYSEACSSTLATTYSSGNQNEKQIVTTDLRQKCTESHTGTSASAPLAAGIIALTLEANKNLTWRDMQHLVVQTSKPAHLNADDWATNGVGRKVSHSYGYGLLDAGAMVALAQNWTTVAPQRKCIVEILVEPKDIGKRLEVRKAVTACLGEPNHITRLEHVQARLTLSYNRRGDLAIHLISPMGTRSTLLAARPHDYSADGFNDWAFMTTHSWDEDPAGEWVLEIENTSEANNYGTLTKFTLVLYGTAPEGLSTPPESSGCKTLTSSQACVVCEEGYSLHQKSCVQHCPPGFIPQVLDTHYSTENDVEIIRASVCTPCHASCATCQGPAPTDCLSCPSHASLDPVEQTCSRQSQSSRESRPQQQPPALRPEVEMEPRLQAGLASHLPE

proprotein convertase PC2, sequence (P21661 109-637): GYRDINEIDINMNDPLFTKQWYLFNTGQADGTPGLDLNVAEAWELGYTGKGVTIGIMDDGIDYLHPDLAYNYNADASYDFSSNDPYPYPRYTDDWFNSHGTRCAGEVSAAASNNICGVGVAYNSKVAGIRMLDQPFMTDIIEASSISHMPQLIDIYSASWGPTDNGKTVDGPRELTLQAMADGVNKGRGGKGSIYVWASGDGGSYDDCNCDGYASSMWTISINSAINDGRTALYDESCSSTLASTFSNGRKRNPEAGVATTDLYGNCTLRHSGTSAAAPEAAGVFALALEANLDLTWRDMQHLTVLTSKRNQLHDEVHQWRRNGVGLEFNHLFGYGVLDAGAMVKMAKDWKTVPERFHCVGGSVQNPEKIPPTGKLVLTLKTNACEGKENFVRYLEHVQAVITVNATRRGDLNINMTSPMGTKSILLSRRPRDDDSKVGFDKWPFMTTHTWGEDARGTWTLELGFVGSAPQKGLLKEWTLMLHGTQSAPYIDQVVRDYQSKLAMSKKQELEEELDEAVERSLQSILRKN

Row | Binder | Ki [1] [µM] | Ki [2] [µM]
1 | Ac-[dW][dR][dR][dR][dI][dL]-NH2 (SMILES CC[C@@H](C)[C@@H](NC(=O)[C@@H](CCCNC(=N)N)NC(=O)[C@@H](CCCNC(=N)N)NC(=O)[C@@H](CCCNC(=N)N)NC(=O)[C@@H](Cc1c[nH]c2ccccc12)NC(C)=O)C(=O)N[C@H](CC(C)C)C(N)=O) [Ac-wrrril-NH2] | 601 | 22.7
2 | Ac-[dW][dR][dR][dR][dI][dR]-NH2 (SMILES CC[C@@H](C)[C@@H](NC(=O)[C@@H](CCCNC(=N)N)NC(=O)[C@@H](CCCNC(=N)N)NC(=O)[C@@H](CCCNC(=N)N)NC(=O)[C@@H](Cc1c[nH]c2ccccc12)NC(C)=O)C(=O)N[C@H](CCCNC(=N)N)C(N)=O) [Ac-wrrrir-NH2] | 399 | 7
3 | Ac-[dW][dR][dR][dR][dR][dL]-NH2 (SMILES CC(=O)N[C@H](Cc1c[nH]c2ccccc12)C(=O)N[C@H](CCCNC(=N)N)C(=O)N[C@H](CCCNC(=N)N)C(=O)N[C@H](CCCNC(=N)N)C(=O)N[C@H](CCCNC(=N)N)C(=O)N[C@H](CC(C)C)C(N)=O) [Ac-wrrrrl-NH2] | 203 | 5.3
4 | Ac-[dW][dR][dR][dR][dR][dR]-NH2 (SMILES CC(=O)N[C@H](Cc1c[nH]c2ccccc12)C(=O)N[C@H](CCCNC(=N)N)C(=O)N[C@H](CCCNC(=N)N)C(=O)N[C@H](CCCNC(=N)N)C(=O)N[C@H](CCCNC(=N)N)C(=O)N[C@H](CCCNC(=N)N)C(N)=O) [Ac-wrrrrr-NH2] | 334 | 2.4
